Results from patent US20190300610A1 (published 2019).
Blank lines part the entries; values can stand above or below the binder they belong to.

What was measured:
[1] = biological target: T1, Human VISTA expressed on cells (human, UniProt Q9H7M9 33-311); assay: flow cytometry, HEK293T cells transfected with human VISTA vs wildtype, 20 µg/ml antibody (FIGS. 1C, 2, 24)
T1 construct: also called HEK293 VISTA O/E; HEK293T cells transfected with vector encoding human VISTA
Protocol: The cells were washed thrice with FACS buffer (PBS with 5 mM EDTA and 0.5% BSA) and resuspended in FITC-conjugated anti-FC antibody (Invitrogen, USA) for 40 min at 2-8° C. Cells were washed again and resuspended in 200 μL of FACS flow buffer (PBS with 5 mM EDTA) for flow cytometric analysis using MACSQuant 10 (Miltenyi Biotec, Germany). After acquisition, all raw data were analyzed using Flowlogic software. Cells were gated using forward and side scatter profile and Median of Fluorescence Intensity (MFI) value was determined for native and overexpressing cell populations.

[2] = biological target: T2, Histidine-tagged mFcγRIII (mouse, UniProt P08508 31-215); assay: BLI (Octet QK384), His-tagged receptor on anti-Penta-HIS biosensor, antibody as analyte, pH 7.2
T2 construct: also called mouse FcγRIII; mFcγRIII (50326-M08H, Sino Biological); not shown: histidine tag
T2 sequence (looked up): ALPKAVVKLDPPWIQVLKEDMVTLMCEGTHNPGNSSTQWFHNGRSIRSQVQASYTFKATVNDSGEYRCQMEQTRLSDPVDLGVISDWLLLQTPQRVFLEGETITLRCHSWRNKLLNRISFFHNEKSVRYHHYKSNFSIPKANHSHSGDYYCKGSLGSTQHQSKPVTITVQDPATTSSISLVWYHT

Histidine-tagged mFcγRIV = biological target: T3, Histidine-tagged mFcγRIV (mouse, UniProt A0A0B4J1G0 21-203); assay: as above
T3 construct: also called mouse FcγRIV; mFcγRIV (50036-M08H, Sino Biological)
T3 sequence: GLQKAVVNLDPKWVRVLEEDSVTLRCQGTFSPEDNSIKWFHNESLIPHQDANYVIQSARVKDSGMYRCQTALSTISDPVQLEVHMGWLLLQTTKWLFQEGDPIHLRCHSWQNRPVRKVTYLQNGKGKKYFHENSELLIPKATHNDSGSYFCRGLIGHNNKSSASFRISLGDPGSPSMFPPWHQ

[3] = biological target: T4, Histidine-tagged mFcγRIIb (mouse, UniProt P08101 30-207); assay: as above
T4 construct: also called mouse FcγRIIb; mFcγRIIb (50030-M08H, Sino Biological); not shown: histidine tag
T4 sequence (looked up): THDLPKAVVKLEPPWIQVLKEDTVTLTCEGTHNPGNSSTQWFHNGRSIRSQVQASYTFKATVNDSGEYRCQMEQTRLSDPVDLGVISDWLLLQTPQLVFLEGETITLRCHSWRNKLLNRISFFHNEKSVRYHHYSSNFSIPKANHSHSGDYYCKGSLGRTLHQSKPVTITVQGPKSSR

[4] = biological target: T5, His-tagged cynomolgus macaque VISTA (cynomolgus macaque, UniProt A0A7N9IB00 33-194); assay: BLI (Octet QK384), His-tagged VISTA captured on anti-Penta-HIS tips, antibody as analyte, global one site fit
T5 construct: also called cynomolgus monkey VISTA; not shown: His tag

His-tagged human VISTA = biological target: T6, His-tagged human VISTA (human, UniProt Q9H7M9 33-194); assay: as above
T6 construct: also called human VISTA-His recombinant protein; VISTA/human His-tagged fusion protein (Sinobiological Inc); not shown: His tag

- binding result [1]: binds
B1: anti-VISTA clone 9M2-C12 IgG1 (antibody, V domains shown)
VH: QVQLQQSGAELVKPGASVRLSCKASGYTFTSYWMHWVRQRPGLGLEWIGEIDPSDSYTNCNQRFKGKATLTVDKSSSTAYTQLSSLTSEDSAVYYCARWAYGPYAMDYWGQGTSVTVSS
VL: DIVMTQTPLSLPVSLGDQASISCRSSQSLVHSNGNTYLHWYLQKPGQSPKLLIYKVSNRFSGVPDRFSGSGSGTDFTLKISRVEAEDLGVYFCSQSTHVPWTFGGGTKLEIKR

- binding result [2]: binds
- binding result (Histidine-tagged mFcγRIV): binds
- binding result [3]: binds
B2: 4M2-C12 mIgG2a (antibody)
heavy: EVKLVESGPGLVKPSQSLSLTCTVTGYSITSDYAWNWIRQFPGNKLEWMGYITYSGNISYNPSLRSRISITRDTSKNQFFLQLNSVTPEDTATYSCARSLYYPWYFDVWGAGTTVTVSSAKTTAPSVYPLAPVCGDTTGSSVTLGCLVKGYFPEPVTLTWNSGSLSSGVHTFPAVLQSDLYTLSSSVTVTSSTWPSQSITCNVAHPASSTKVDKKIEPRGPTIKPCPPCKCPAPNLLGGPSVFIFPPKIKDVLMISLSPIVTCVVVDVSEDDPDVQISWFVNNVEVHTAQTQTHREDYNSTLRVVSALPIQHQDWMSGKEFKCKVNNKDLPAPIERTISKPKGSVRAPQVYVLPPPEEEMTKKQVTLTCMVTDFMPEDIYVEWTNNGKTELNYKNTEPVLDSDGSYFMYSKLRVEKKNWVERNSYSCSVVHEGLHNHHTTKSFSRTPGK
light: DIVITQTPAILSTSPGEKVTMTCRASSSVGYIHWYQQKPGSSPKPWIYATSNLASGVPARFSGSGSGTSNSLTITRVEAEDAATYYCQQWSSYPPITFGGGTKLEVKRADAAPTVSIFPPSSEQLTSGGASVVCFLNNFYPKDINVKWKIDGSERQNGVLNSWTDQDSKDSTYSMSSTLTLTKDEYERHNSYTCEATHKTSTSPIVKSFNRNEC
notes: Mouse IgG2a format, produced in CHO cells; also called 4M2-C12 IgG2a

- Kd [4]: < 1 µM
- Kd (His-tagged human VISTA): < 1 µM
B3: anti-VISTA clone 4M2-C12 IgG1 (antibody)
heavy: not shown
light: DIVITQTPAILSTSPGEKVTMTCRASSSVGYIHWYQQKPGSSPKPWIYATSNLASGVPARFSGSGSGTSNSLTITRVEAEDAATYYCQQWSSYPPITFGGGTKLEVKRTVAAPSVFIFPPSDEQLKSGTASVVCLLNNFYPREAKVQWKVDNALQSGNSQESVTEQDSKDSTYSLSSTLTLSKADYEKHKVYACEVTHQGLSSPVTKSFNRGEC
notes: Human-mouse chimeric IgG1/kappa; also called V4; clone V4
